Laboratory results reported in patent US20120141373A1 (University of California, published 2012).
Positions count from the first letter of the chain named.

Legend:
[1] = target: T1, human MT-SP1 protease domain (human, UniProt Q9Y5Y6 615-855); assay: steady state kinetics, probably pM (the same paragraph prints 720 µM for what Table 3 gives as 0.72 nM)
T1 construct: domain: protease domain; also called hMT-SP1; matriptase
T1 sequence (looked up): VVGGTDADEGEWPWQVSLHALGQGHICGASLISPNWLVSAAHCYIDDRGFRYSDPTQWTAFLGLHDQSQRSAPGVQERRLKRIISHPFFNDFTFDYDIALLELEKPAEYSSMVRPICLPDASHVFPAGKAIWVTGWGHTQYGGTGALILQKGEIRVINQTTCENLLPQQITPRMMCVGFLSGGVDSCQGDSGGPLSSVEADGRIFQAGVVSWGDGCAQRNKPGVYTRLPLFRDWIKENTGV
Procedure: (§1) Briefly, all reactions were carried out in 50 mM Tris, pH 8.8, 50 mM NaCl, 0.01% Tween-20 in 96-well, medium binding, flat-bottomed plate (Corning), and cleavage of substrate (Spectrazyme-tPA (hexahydrotyrosyl-Gly-Arg-pNA), American Diagnostica, Greenwich, Conn.) was monitored in a UVmax Microplate Reader (Molecular Devices Corporation, Palo Alto, Calif.). […] Reactions to determine the IC₅₀'s were carried out by incubating 0.2 nM enzyme with inhibitor for >5 hours to assure steady-state behavior of the system. […] Inhibitor activity was also measured using the chromogenic substrate Spectrafluor tPA (American diagnostica, Inc.). […] Kaleidagraph 3.6 was used to fit all graphs and equations (Synergy Software, Reading, Pa.).

epithin = target: T2, epithin (mouse, UniProt P56677 615-855, limits assumed); assay: steady state kinetics, inhibition of epithin
T2 construct: also called mouse homologue of MT-SP1; A11 (Epithin)
T2 sequence (looked up): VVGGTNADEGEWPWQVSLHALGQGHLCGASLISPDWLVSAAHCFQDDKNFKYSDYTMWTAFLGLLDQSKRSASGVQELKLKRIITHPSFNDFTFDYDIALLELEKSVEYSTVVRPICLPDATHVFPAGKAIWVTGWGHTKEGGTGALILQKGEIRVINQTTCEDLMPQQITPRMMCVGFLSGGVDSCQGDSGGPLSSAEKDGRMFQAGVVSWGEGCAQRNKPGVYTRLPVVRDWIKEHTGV

[2] = target: T1, human MT-SP1 protease domain; assay: steady state kinetics
Procedure: as §1

[3] = target: T1, human MT-SP1 protease domain; assay: steady state kinetics, tight-binding inhibition of Spectrazyme-tPA cleavage
Procedure: as §1

B1: E2 Fab (Fab, V domains shown)
VH: QVQLVQSGGGLVKPGGSLRLSCAASGFTFSSYAMSWVRQAPGKGLEWVSAISGSGGSTYYADSVKGRFTISRDNSKNTLYLQMSSLRAEDTAVYYCARPYLTYPQRRGPQNVSPFDNWGQGTMVTVSS
VL: DIQMTQSPSSLSASVGDRVTITCRASQGISSYLAWYQQKPGKAPKLLIYAASSLQSGVPSRFSGSGSGTDFTLTISSLQPEDFAVYYCQQHGNLPYTFGDGTKVEIKR
notes: also called anti-MT-SP1 Fab antibody E2
Ki [1]: 12000 nM

B2: A11 Fab (Fab, V domains shown)
VH: EVQLVQSGGGLVKPGGSLRLSCAASGFTFSSYAMSWVRQAPGKGLEWVSAISGSGGSTYYADSVKGRFTISRDNSKNTLYLQMSSLRAEDTAVYYCVKDLGIAARRFVSGAFDIWGQGTMVTVSS
VL: EIVLTQSPGTLSLSPGERATLSCRASQSVSSSYLAWYQQKPGQAPRLLIYGASTRATGIPARFSGSGSGTDFTLTINSLEPEDFAVYYCQQRSNWPPGYTFGQGTKVEIKR
notes: Human Fab from a naive phage library, VH3 heavy chain and Vkappa3 light chain; The Fab was made in E. coli for biochemical assays and in T. reesei for crystallisation; also called Fab A11; recombinant A11 Fab
Ki (epithin): 87 nM

B3: A11 H R100bA (Fab, V domains shown)
VH: B2 VH with R106A
VL: B2 VL
notes: also called ArgH100bAla; A11 mutant ArgH100bAla
fold change of KI over wild-type A11 [2]: 250 fold
Ki [3]: 180 nM

B4: A11 H R100aA (Fab, V domains shown)
VH: B2 VH with R105A
VL: B2 VL
notes: also called ArgH100aAla; A11 mutant ArgH100aAla
fold change of KI over wild-type A11 [2]: ~2 fold
Ki [3]: 1.5 nM

B5: A11 H R100bK (Fab, V domains shown)
VH: B2 VH with R106K
VL: B2 VL
notes: also called ArgH100bLys; A11 mutant ArgH100bLys
fold change of KI over wild-type A11 [2]: 250 fold
Ki [3]: 180 nM
